The target of assay [1] is Insulin. Briefly: BLI. On the technique in general: In BLI a coated tip is dipped into the sample, and binding shifts an interference pattern.
For assay [2], the target named is Insulin. Briefly: BLI. The source holds these as a separate data set.

Where two headings read alike, the source gives them in different places.

The source of these data is publication PMC6864339.

B1: Recombinant mouse secretagogin (SCGN) (natural protein)
chain: MDNARRKTPARLDAACFWQIWQRFDKEEKGYIRETELDAFFDHLLAKSGTEDTLMEENVQKVKEQLMTSHNVSKEGRILMKELASMFLSEDENFLLFFRLETPLDNSVEFMQIWRKYDADSSGFISAAELCNFLRDLFLHHKKNISEAELEEYTSTMMKIFDKNKDGRLDLNDLARILALQENFLLQFKMDASSTEERKRDFEKIFAHYDVSKTGALEGPEVDGFVKDMMELVQPSISGVDLDKFREILLRHCDVNKDGKIQKSELALCLGLKINP
With B1, in the assay with Insulin [1], the Kd (commonly the free concentration of one partner at which half of the binding sites on the other are occupied at equilibrium, for simple one-to-one binding) is 1400 nM and the koff (usually the first-order rate constant of dissociation) turned out to be 0.0006 s⁻¹. In addition, in the assay with Insulin [2], the Kd came out at 1800 nM, the koff was determined as 0.001 s⁻¹ and the kon (usually the second-order rate constant of association) turned out to be 720 M⁻¹ s⁻¹.
